This is an account of results in PMC3376909 (Molecular Microbiology, 2012).

The experiment deals with T1, MinD-N45A (purified) (E. coli, UniProt P0AEZ3 1-270, N45A).
T1 sequence (looked up): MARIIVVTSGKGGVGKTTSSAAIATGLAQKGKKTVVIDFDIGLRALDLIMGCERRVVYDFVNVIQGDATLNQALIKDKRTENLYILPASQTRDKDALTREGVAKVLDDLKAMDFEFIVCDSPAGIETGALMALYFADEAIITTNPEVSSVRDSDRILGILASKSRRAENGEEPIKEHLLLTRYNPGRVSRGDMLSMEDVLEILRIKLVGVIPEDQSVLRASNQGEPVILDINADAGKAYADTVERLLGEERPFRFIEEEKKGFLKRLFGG
The experiment can be described thus: co-sedimentation.

B1: MinE-his (purified) (natural protein, E. coli, UniProt P0A734 1-88, looked up)
chain: MALLDFFLSRKKNTANIAKERLQIIVAERRRSDAEPHYLPQLRKDILEVICKYVQIDPEMVTVQLEQKDGDISILELNVTLPEAEELK
In the case of B1, the binding result is given as “binds”.

B2: MalE-MinC (natural protein, E. coli, UniProt P18196 1-231, looked up)
chain: MSNTPIELKGSSFTLSVVHLHEAEPKVIHQALEDKIAQAPAFLKHAPVVLNVSALEDPVNWSAMHKAVSATGLRVIGVSGCKDAQLKAEIEKMGLPILTEGKEKAPRPAPTPQAPAQNTTPVTKTRLIDTPVRSGQRIYAPQCDLIVTSHVSAGAELIADGNIHVYGMMRGRALAGASGDRETQIFCTNLMAELVSIAGEYWLSDQIPAEFYGKAARLQLVENALTVQPLN
For the molecule B2, the binding result is given as “binds”.
